Like-named read-outs stand apart in the source and are kept apart here.
Experiments:
[1] = monkey, in vivo; cited from earlier work
[2] = system: FGF21 signaling pathway; test: FGF21 cell-based bioactivity assay, luciferase reporter in HEK293T cells transfected with GAL4DBD-ELK1 and KLB (β-klotho); details: Table 4, 6 h
From the text: The puromycin resistance gene pac was amplified by PCR and cloned into pcDNA3.1(+) to replace the original G418 resistance gene. The GAL4DBD-ELK1, IRES. and KLB (β-klotho) genes were amplified by PCR and cloned into the pcDNA-Puro plasmid in sequence to construct the plasmid pcDNA-GAL4DBD-ELK1-IRES-KLB-Pero for cell transfection and screening. The constructed recombinant plasmid and the pFR-Luc plasmid (Agilent) were extracted by Omega E.Z.N.A.® Endo-Free Plasmid Midi Kit for future use. The cell transfection process was as follows: HEK293T cells were plated 3×10^5 cells per well in a 6-well plate and cultured overnight.
After washing the cells twice with Opti-MEM medium, 2 ml Opti-MEM medium was added. Cell transfection reagent was prepared according to the following proportion: Lipofectamine 2000 (6 μl ): pFR-Luc (4.6 μg): pcDNA-GAL4DBD-ELK1-IRES-KLB-Pura (1 μg). […]
The cells were digested with pancreatin to prepare a cell suspension (1×10^5 cells/ml, DMEM+5% FBS+1 μg/ml puromycin) after reaching confluence in the dish, followed by plating in a 96-well plate (100 μl per well), and culturing overnight. Samples of gradient concentrations were added and cultured for 6 h before fluorescence detection by the Luciferase Reporter Assay Kit (Lucifersae reporter kit, Ray Biotech, Cat:68-LuciR-S200).

[3] = mouse, in vivo; cited from earlier work

B1: Natural FGF21: natural fibroblast growth factor 21, SEQ ID NO.87 (protein)
chain: HPIPDSSPLLQFGGQVRQRYLYTDDAQQTEAHLEIREDGTVGGAADQSPESLLQLKALKPGVIQILGVKTSRFLCQRPDGALYGSLHFDPEACSFRELLLEDGYNVYQSEAHGLPLHLPGNKSPHRDPAPRGPARFLPLPGLPPALPEPPGILAPQPPDVGSSDPLSMVGPSQGRSPSYAS
modifications: Amino acid sequence of natural FGF21
[1]
  Serum half-life: 2 h
[2]
  EC50: 120 pM
[3]
  Serum half-life: 0.5 h

Source: patent US20220340635A1, “FUSION PROTEIN FOR TREATMENT OF METABOLIC DISEASE” (ZHEJIANG DOER BIOLOGICS CORPORATION, priority 2019, published 2022)
